In patent publication US20170056521A1:

Target: human HLA-A2 (human)
Assay: single colony ELISA; soluble scFv supernatant on coated HLA-A2 (0.5 µg/well), anti-E-tag-HRP detection

B1: scFv clone 3E10 (scFv)
scFv: DIQMTQSPSSLSASVGDRVTITCRASQDVFFFVAWYQQKPGKAPKLLIYGPPGLYSGVPSRFSGSGSGTDFTLTISSLQPEDFATYYCQQYFSFPITFGQGTKVEIKRGGGGSIEGRSGGGGSEVQLVESGGGLVQPGGSLRLSCAASGFTISNGGIHWVRQAPGKGLEWVASIWPSGGYTSYADSVKGRFTISADTSKNTAYLQMNSLRAEDTAVYYCARFGVNYHGIMDYWGQGTLVTVSS
OD450: 1.3 OD450
